Experimental findings from the supplement of paper PMC9170038 are described below.

The data set has as its system MS2 coat protein. Briefly: apparent KD of MS2 coat protein; designed switch direction (-1 OFF switch, 1 ON switch): -1; higher = weaker reporter binding. Put shortly:
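Three titration conditions were used: no input, 200 uM small-molecule ligand, and an oligonucleotide input. In each, SNAP-549-labelled MS2 coat protein was raised from 0.7 or 1.5 nM, doubling, to 3 µM over designed RNA switches transcribed on Illumina chips by stalled E. coli RNA polymerase. Curve fits of normalised cluster fluorescence gave values whose per-design median over clusters is the apparent KD.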

Where [1] appears, read: Eterna round: R95, input ligand: microRNA oligo, concentration not stated.
[2] abbreviates: input ligand: microRNA oligo, concentration not stated.
Setting [3] is: Eterna round: R95, input ligand: FMN 200 uM.
The mark [4] stands for this setting: Eterna round: R95, input ligand: none.

As to “GGUGCGUAUGUGAGGAUAUGCUGGUCCUUGGUUCAGCAGAAGGCACAUGAGGAUCACCCAUGUGGUGUCGUACC [salish99_Bmod_Ex4_025] (puzzle: Brourd's mod of Exclusion 4)”, the “apparent KD of MS2 coat protein” value under setting [1] was found to be 0.188 µM.

Take “AAUAACAGAGGAUAUACUAUUUUAUGUGUUUGUUAUUUUAAACAUGAGGAUCACCCAUGUAGAAGGCUGAAUGA [JMF 56] (puzzle: Exclusion 2)”: under setting [1], the “apparent KD of MS2 coat protein” value turned out to be 0.025 µM.

In the case of “UCAUAUAACGAGGAUAUGCGGGCCGUUUUCCCAGCAGAAGGCGUUACAUGAGGAUCACCCAUGUACCCGGGUAA [EX6 A.29] (Eterna round: R97, puzzle: Exclusion 6)”, the “apparent KD of MS2 coat protein” value runs as follows: (input ligand: FMN 200 uM) 0.0181 µM; (input ligand: none) 0.515 µM.

In the case of “AUCAGCUCGUGAGGAUAUACAUGCGUGCUUCGGCACGUAUGAUAGAUCACAUGAGGAUCACCCAUGUAGAAGGCACGAGCUGAU [ENG2/4-A3] (Eterna round: R96, puzzle: Exclusion NG 2)”, the “apparent KD of MS2 coat protein” value is, setting by setting: (input ligand: FMN 200 uM) 0.0151 µM; under setting [2], 0.0121 µM; (input ligand: none) 0.0134 µM.

On to “UUUUAACAUGAGGAUCACCCAUGUGAGGAUAUCGAAUUUUAUAUUAAUAUUAAUAAAACGAGAAGGCACAUUUU [JMF 8] (puzzle: Exclusion 1)”, for which the “apparent KD of MS2 coat protein” value was 0.0608 µM under setting [3], 0.0496 µM under setting [1] and 0.0496 µM under setting [4].

On to “AGACAGUCAGGAUAUACAUGAGGAUCACCCAUGUUAAGAAGAGAAAGGGCAGGAAGAGGUAGAAGGGACAAGAA [JR_Exclu3_Sub033] (puzzle: Exclusion 3)”, for which the “apparent KD of MS2 coat protein” value under setting [3] was determined as 0.0211 µM, the “apparent KD of MS2 coat protein” value under setting [1] came to 0.0236 µM and the “apparent KD of MS2 coat protein” value under setting [4] stood at 0.0295 µM.

As to “CCGGAAUAGCAGGAUAUAGGAGUCGAUAGACACCUAGAAGGGCUGACAUGAGGAUCACCCAUGUGUCCUACCGG [Fiskers Ex 6 - 83] (puzzle: Exclusion 6)”, the “apparent KD of MS2 coat protein” value under setting [1] turned out to be 0.0715 µM.

For “UCAGGCAAGUGUACAGCCAACAUGAGGAUCACCCAUGUCGGGAGAAGGACUGUUACACACCGCUCGUCUUACUUGCC [Eternabot (Original) Solution 35] (Eterna round: R97, puzzle: Sensor, turn-off variant 1)”, the “apparent KD of MS2 coat protein” value is 0.0183 µM (input ligand: FMN 200 uM) and 0.0231 µM (input ligand: none).

“GCAGCAACUCUAAUCAAUCCAACAUGAGGAUCACCCAUGUCUCAGGAUAUGGUCUGGAUUACAGGCCAGAAGGGAGAAAGCUGC [Eli exng3 - 046] (Eterna round: R96, puzzle: Exclusion NG 3)”: the “apparent KD of MS2 coat protein” value runs as follows: (input ligand: FMN 200 uM) 0.00907 µM; under setting [2], 0.00762 µM; (input ligand: none) 0.0119 µM.

On to “CAUGGAUGUGAGCCGCAUUACAUGAGGAUCACCCAUGUCAACAAGCUUUUUGCUUAUCUUACGCGGCGGCAUCAAAA [Enisusti] (puzzle: Sensor v3, turn-off variant 1)”, for which the “apparent KD of MS2 coat protein” value came out at 0.0134 µM under setting [3], 0.0118 µM under setting [1] and 0.00939 µM under setting [4].

Consider “AAAACGUGAGGAUAUACUGUGAGAUCUCAAGGUACGUUAAGACAUGAGGAUCACCCAUGUAGAAGGCGCCAAAA [Eternabot (Original) Solution 15] (Eterna round: R97, puzzle: Exclusion 2)”, for which the “apparent KD of MS2 coat protein” value runs as follows: (input ligand: FMN 200 uM) 0.0573 µM; (input ligand: none) 0.0309 µM.

On to “GAGGUACAUGAGGAUCACCCAUGUGAGGAUAUAGUGGAAGAUUGAGAGAGGUGGAGGACUAGAAGGCACAGUGG [JR_Exclu1_Sub039] (puzzle: Exclusion 1)”, for which the “apparent KD of MS2 coat protein” value under setting [1] came to 0.0481 µM.

Take “CGGCGACAUGAGGAUCACCCAUGUGAGGAUAUGACGGGAAAAGCGUGAGCAGUUUGUAUCAGAAGGCGGGUAGG [salish99_ex1_r4_080] (Eterna round: R97, puzzle: Exclusion 1)”: the “apparent KD of MS2 coat protein” value reads like this: (input ligand: FMN 200 uM) 0.0372 µM; (input ligand: none) 0.0336 µM.

In the case of “AAGGAACAUGAGGAUCACCCAUGUGAGGAUAUGUGAGAAGGAUUUGAGAAGGAGAGGGACAGAAGGCACUAGGA [JR_Exclu1_Sub081] (puzzle: Exclusion 1)”, the “apparent KD of MS2 coat protein” value under setting [1] is 0.0347 µM.

For “GGUACUAACACGAGAGUGUUAGUACUAUAAGCUUGUGUUACAUGAGGAUCACCCAUGUCCUCAUAAGCUCGUCUUGU [Mat - Sensor v3 - Turn-off var 2 - D88] (puzzle: Sensor v3, turn-off variant 2)”, the “apparent KD of MS2 coat protein” value under setting [3] turned out to be 0.0482 µM, the “apparent KD of MS2 coat protein” value under setting [1] is 0.0548 µM and the “apparent KD of MS2 coat protein” value under setting [4] was 0.0468 µM.

As to “UUUGCAAGCUUAAGAUCCCACAUGAGGAUCACCCAUGUUGCUGCCGUGAGGUAGCAUUUAACUUAUGCUCGUCUUAU [JL TOV1 3.50] (Eterna round: R97, puzzle: Sensor, turn-off variant 1)”, the “apparent KD of MS2 coat protein” value runs as follows: (input ligand: FMN 200 uM) 0.14 µM; (input ligand: none) 0.176 µM.

Consider “UGUUGGUACGUAGGAUAUCCACCAACAGGUGGAAGGAUAUGGAAACAGAAGGUUCGCCAACAGGCGGAGAAGGACGUGGUAACU [pwkr exNG2 2xF7 2xFMN.24] (Eterna round: R96, puzzle: Exclusion NG 2)”, for which the “apparent KD of MS2 coat protein” value (input ligand: FMN 200 uM) is 0.126 µM, the “apparent KD of MS2 coat protein” value under setting [2] stood at 0.212 µM and the “apparent KD of MS2 coat protein” value (input ligand: none) was 0.255 µM.

On to “UUCGUGCAGCUUUGCUGUACGCGUACAUGAGGAUCACCCAUGUAGGAUAUGGUACGCUUUGCGUGCUAGAAGGAUAUGGAGAGG [JL EXNG3 1.34] (Eterna round: R96, puzzle: Exclusion NG 3)”, for which the “apparent KD of MS2 coat protein” value reads like this: (input ligand: FMN 200 uM) 0.0629 µM; under setting [2], 0.0287 µM; (input ligand: none) 0.0376 µM.

With “AAGUAUAGAGGAUAUAGUAGGUACUACAUGAGGAUCACCCAUGUUCUUCAUUACGUAUUUCUAGAAGGCUGAUAAA [EX-5 Malc#26] (puzzle: Exclusion 5)”, the “apparent KD of MS2 coat protein” value is, setting by setting: under setting [3], 0.484 µM; under setting [1], 0.174 µM; under setting [4], 0.268 µM.

With “ACAUCACAGCUAGGAUAUAGAUGACAUGAGGAUCACCCAUGUUAUCCCAUGUUGACGAAAACCGACUAGAAGGAGCUACAGAUG [Ex NG2 #6] (Eterna round: R96, puzzle: Exclusion NG 2)”, the “apparent KD of MS2 coat protein” value (input ligand: FMN 200 uM) was 0.101 µM, the “apparent KD of MS2 coat protein” value under setting [2] stood at 0.0402 µM and the “apparent KD of MS2 coat protein” value (input ligand: none) was determined as 0.0637 µM.

“GGCAUGCAAGGAUAUACUUGCAGUGAUGUUCGAUAAAUUCUACUUGAGGAUCACCCAAGUAGAAGGUGCAUGCC [Exclusion 2 (Mod4 JL EX2 4.74 Vienna UCT mod of Mamaed)] (Eterna round: R97, puzzle: Exclusion 2)”: the “apparent KD of MS2 coat protein” value is 0.0152 µM (input ligand: FMN 200 uM) and 0.0273 µM (input ligand: none).

Turning to “UGCUAGUCAGGAUAUACGAACAUGUCAAAAGACGUGAAGGGACAUGAGGAUCACCCAUGUAGAAGGGACUAGCC [salish99_ex2_r3_008] (puzzle: Exclusion 2)”, the “apparent KD of MS2 coat protein” value under setting [1] was 0.0255 µM.

On to “CUAUUACGAGGAUAUGAUUUAAGUAACAUGAGGAUCACCCAUGUUUUUCCGUUGUUAUGUUCAGAAGGCGUAUUAU [JR_E5_Sub023] (puzzle: Exclusion 5)”, for which the “apparent KD of MS2 coat protein” value by setting is: under setting [3], 0.0861 µM; under setting [1], 0.0356 µM; under setting [4], 0.0388 µM.

On to “ACGUAUCAUGUCAGGAUAUAGCUAGCUACGGCUAGCUAGAAGGGACAUGAGGAUCACCCAUGUCAAAGAUACGU (puzzle: Brourd's mod of Exclusion 4)”, for which the “apparent KD of MS2 coat protein” value under setting [1] worked out at 0.0132 µM.

Take “GUCGGGCAAGGAUAUGUAGCACUCUACAUGAGGAUCACCCAUGUGAGCCUGCAUGGUGCGACAGAAGGUGCAAAAG [Enencear] (Eterna round: R97, puzzle: Exclusion 5)”: the “apparent KD of MS2 coat protein” value runs as follows: (input ligand: FMN 200 uM) 0.33 µM; (input ligand: none) 0.361 µM.

As to “AAGGGUGCCUUUAGAAAGACAUGAGGAUCACCCAUGUAGACUGAGGAUAUCCACUCCUAAGGACCGGAGAAGGCAGUGUAAUGC [Ex NG3 #62] (Eterna round: R96, puzzle: Exclusion NG 3)”, the “apparent KD of MS2 coat protein” value reads like this: (input ligand: FMN 200 uM) 0.0621 µM; under setting [2], 0.0186 µM; (input ligand: none) 0.0318 µM.

For “UUGUUGUAUGUAGGAUAUGCAUAUUAUUAUUAUGCAGAAGGACAUGAGGAUCACCCAUGUAUGUUAUUAUUAUAUGUUAUAUGU [Title] (Eterna round: R96, puzzle: Exclusion NG 1)”, under setting [2], the “apparent KD of MS2 coat protein” value came to 0.0256 µM.

With “GCCUGUGAAGGAUAUACAUGAGGAUCACCCAUGUGGCGGGCAUACCCGCCGAGACCGUGUAGAAGGUCAUAGUA [Telamais] (puzzle: Exclusion 3)”, the “apparent KD of MS2 coat protein” value under setting [1] amounted to 0.0499 µM.

As to “GAAAAGCUAGGAUAUACAUGAGGAUCACCCAUGUAAGGUCGCUUCUUAUAUAGGGCAUGUAGAAGGAGCAAAGA [Eneriner] (puzzle: Exclusion 3)”, the “apparent KD of MS2 coat protein” value reads like this: under setting [3], 0.0706 µM; under setting [1], 0.0359 µM; under setting [4], 0.0321 µM.

Take “UUUUUCUGGCAAGGAUAUCCUGUGCGGUUCCGGCUCGUGUCUGUUACAUGAGGAUCACCCAUGUGGGAGAAGGUGCCUGUGGUU [Design 88] (Eterna round: R96, puzzle: Exclusion NG 2)”: the “apparent KD of MS2 coat protein” value worked out at 0.0942 µM (input ligand: FMN 200 uM), 0.0269 µM under setting [2] and 0.0353 µM (input ligand: none).

On to “GCAAAUCAUGUAGGAUAUGCGUGGCGAAGCUAUGCAGAAGGACAUGAGGAUCACCCAUGUGCUUCCGUCUGCGUACAGACGGUA [Mat - Exclusion NG 1 - Mod of JL - D18] (Eterna round: R96, puzzle: Exclusion NG 1)”, for which the “apparent KD of MS2 coat protein” value by setting is: (input ligand: FMN 200 uM) 0.0935 µM; under setting [2], 0.0734 µM; (input ligand: none) 0.0913 µM.

“AGAUCACAUGAGGAUCACCCAUGUGAGGAUAUCGACUGAACAGCUUCGGCUGUUCAGUCGAGAAGGCACAAUUA [EX1 #41] (Eterna round: R97, puzzle: Exclusion 1)”: the “apparent KD of MS2 coat protein” value (input ligand: FMN 200 uM) stood at 0.0451 µM and the “apparent KD of MS2 coat protein” value (input ligand: none) is 0.0238 µM.
